Source: patent publication US11981740B2, “BAFF-R antibodies and uses thereof” (CITY OF HOPE, priority 2016, dated 2024)

Tests used:
JeKo-1 MCL cell line = assay: In vivo JeKo-1 MCL xenograft, bioluminescence imaging; design: species or system NSG mice; conditions: compared with PBS or NK cells alone
Description: (§1) FIG. 4A is a schematic showing treatment schedule following Day 0 tumor challenge with minimum lethal dose of tumors. Treatments were given by IV tail vein injections. FIGS. 4B and 4C are images showing chimeric antibodies targeting human BAFF-R elicited in vivo therapeutic effects against B-cell tumors. Bioluminescence images of mice challenged with luciferase-expressing tumors: JeKo-1 (MCL) (FIG. 4B) or RS4; 11 (ALL) (FIG. 4C). Experimental groups received treatment of chimeric BAFF-R mAbs (C55 or C90, as indicated). Control group mice received PBS, NK cells alone, or rituximab on the same schedule. Data are representative of three independent experiments.
(§2) In vivo studies. For tumor models, stable, luciferase-expressing tumors lines were established for bioluminescent imaging in mouse models. Briefly, a luciferase gene was introduced into tumor lines by a lentivirus gene delivery system (pLenti7.3/V5-DEST Gateway Vector Kit, Life Technologies, Carlsbad, CA). The minimum lethal dose per mouse was determined for each tumor cell line by dose titration. Tumor cells were injected intravenously (IV) and mice were monitored by in vivo bioluminescence imaging for minimum tumor dose to ensure engraftment. Minimum lethal tumor doses were: 1×10^6 JeKo-1, 5×10^5 RS4; 11, 5×10^5 JeKo-1-CD20-KO, or 2.5×10^4 Z-138 cells. […]

[1] = system: BAFF-R-expressing L cells and JeKo-1; assay: ADCC chromium-51 release assay, L cells, JeKo-1, U266; type: cell-based; conditions: NK cells E:T 20:1; BAFF-R positive vs negative targets
Experimental: Antibody-induced cytotoxicities measured by chromium-51 release after incubation with C55, C90, or rituximab and effectors (NK cells or complement containing serum). NK effector cell to target ratio (E:T) of 20:1. […] Data are shown as the mean±s.d. of triplicate samples. *P<0.05 compared with NK cells by two-tailed Student's t-test.
FIG. 12 is a graph showing chimeric antibodies induced ADCC against BAFF-R expressing L cells. BAFF-R-expressing D2C L cells (targets) were labeled with chromium-51 followed by incubation overnight with chimeric mAb+NK cells (effector to target ratio, 20:1). Culture supernatant was analyzed for released chromium.
(§3) Cytotoxicity assays. Target cells (L cells, human tumor lines, primary patient samples) were labeled with chromium-51 (51Cr, Perkin Elmer, Waltham, MA) for a 51Cr release assay. Briefly, antibodies and effectors (NK cells or complement serum standard [Sigma Aldrich, St. Louis, MO]), were added to labeled target cells and incubated up to 18 hours. NK cells were enriched from PBMC (NK cell enrichment kit, Stemcell Technologies, Vancouver, Canada). 51Cr released into supernatant was detected with a Wizard Automatic Gamma Counter (Perkin Elmer).

Mino cells = assay: Antibody internalization by flow cytometry; type: cell-based; conditions: 37° C. for 1 hour
Experimental: Mino cells were incubated with mAb C90 (0.05 μg/10^6 cells) at 4° C. for 20 minutes followed by incubation at 37° C. for 1 hour. Flow cytometry analysis was performed with anti-mouse IgG-APC. Cells were gated for surface localized antibodies (OUT) and loss of cell surface staining (IN).

[2] = system: JeKo-1-CD20-KO tumor cells; assay: In vivo JeKo-1-CD20-KO xenograft; design: species or system NSG mice
Description: (§4) FIGS. 6A and 6B are images and FIG. 6C are graphs showing chimeric antibodies targeting human BAFF-R elicited in vivo therapeutic effects against drug resistant B-cell tumors. Bioluminescence images of mice challenged with luciferase-expressing tumors JeKo-1-CD20-KO cells (FIG. 6A) or ibrutinib-resistant Z-138 cells (FIG. 6B) followed by antibody treatments as in FIG. 4. Control group mice received PBS, NK cells alone, or rituximab on the same schedule. […] Tumor free rate and survival differences between experimental and all control groups were analyzed by log-rank test (**P<0.001). Data are representative of three independent experiments.
as §2

[3] = system: RS4; 11 (acute lymphoblastic leukemia, ALL); assay: In vivo RS4;11 ALL xenograft, bioluminescence imaging; conditions: RS4;11 challenged NSG mice
Description: as §1, §2

[4] = system: ibrutinib-resistant Z-138; assay: In vivo ibrutinib-resistant Z-138 xenograft; design: species or system NSG mice; conditions: Z-138 tumor-bearing mice; compared with PBS or NK only
Description: as §4, §2

[5] = system: primary CLL (n=3) and MCL (n=2) samples; assay: ADCC on primary samples from rituximab-treated patients; type: cell-based, human; conditions: patients previously treated with rituximab; E:T=20:1
Experimental: FIGS. 3A and 3B are graphs showing BAFF-R monoclonal antibodies induce in vitro Antibody Dependent Cell-Mediated Cytotoxicity (ADCC) against primary B-cell tumors. Antibody-dependent cell-mediated cytotoxicity (ADCC) effects were measured by chromium-51 release after incubation with C55, C90, or rituximab and effectors (NK cells). […] Data are shown as the mean±s.d. of triplicate samples. *P<0.05 compared with NK cells by two-tailed Student's t-test.
as §3

JeKo-1-CD20-KO clone 25 = assay: ADCC on rituximab-resistant JeKo-1-CD20-KO; type: cell-based; conditions: E:T=20:1
Experimental: FIGS. 5A, 5B and 5C are images or graphs showing chimeric BAFF-R antibodies induce ADCC on drug resistant lymphoma models in vitro. FIG. 5A is a scatterplot of FACS analysis showing CD20 binding on JeKo-1 cells following CRISPR/HDR knock-out of CD20 gene. CD20 expression on selected CD20−/−clone #25 compared to WT JeKo-1. ADCC effects measured by chromium-51 release after incubation with C55, C90, or rituximab and effectors NK cells (E:T=20:1). Percentage of cell specific lysis of target cells: rituximab-resistant JeKo-1-CD20-KO (FIG. 5B) and ibrutinib-resistant Z-138 and SP49-IR (FIG. 5C). All data are representative of two or more identical experiments. Data are shown as the mean±s.d. of triplicate samples. *P<0.05 compared with NK cells by two-tailed Student's t-test.
as §3
Generation of JeKo-1-CD20-KO. […]

[6] = system: JeKo-1 (MCL), SU-DHL-6 (DLBCL), Raji (Burkitt lymphoma), and RL (FL); assay: Flow cytometry binding to NHL cell lines; design: species or system human; conditions: chimeric antibodies conjugated to Alexa Fluor 488
Description: FIGS. 1A, 1B, 1C, 1D and 1E are FACS images showing generation and specificity of novel monoclonal antibodies against human BAFF-R. FIG. 1A is a FACS analysis of cell surface expression of hBAFF-R-GFP fusion protein in mouse fibroblast L cells. Gated on GFP-positive cells, engineered L cell clone (right plot) is compared to parental L cells (left plot). Clone D2C was selected for further studies. FIGS. 1B, 1C, 1D and 1E are FACS traces of fluorescent counts of anti-BAFF-R antibodies binding cell lines and patient samples. […] BAFF-R-negative 293T embryonic kidney cell line was used as a control. […] Parental L cells and secondary anti-hIgG-APC antibodies only were used as controls. […] The data are representative of three independent experiments. For all of FIGS. 1B-1E, the traces from top to bottom as shown in the figures correlate with the variables (e.g., antibody type or cell type) used from top to bottom shown below or next to the figures.
FIG. 10 are results of FACS analyses showing hBAFF-R mAbs recognized non-Hodgkin lymphoma cell lines in vitro. […] The traces from top to bottom as shown in the figures correlate with the variables (e.g., antibody type or cell type) used from top to bottom shown next to the figures.

B1: C55: chimeric anti-BAFF-R mAb from clone 55 containing human IgG1 constant regions (antibody, V domains shown)
VH: QVTLKESGPGILKPSQTLSLTCSFSGFSLSTSGMGVGWIRQPSGKGLEWLAHIWWDDDKYYNSSLKSHLTISKDTSRNQVFLKITSVDTADTATYYCARSFGYGLDYWGQGTTLTVSSAS
VL: DIQMTQTTSSLSASLGDRVTISCSASQDISNYLNWYQQKPDGTVKLLIYYTSSLHSGVPSRFSGSGSGTDYSLTISSLEPEDIATYYCHQFSELPWTFGGGTKLEIKRT
tumor growth (JeKo-1 MCL cell line): significant retardation of tumor growth
antibody-dependent cell-mediated cytotoxicity (ADCC) [1]: specifically against BAFF-R-expressing L cells and JeKo-1, but not BAFF-R negative L cells nor the BAFF-R negative human multiple myeloma line, U266
internalization upon binding BAFF-R (Mino cells): limited internalization
tumor free and long-term overall survival ([2]; 80-day curves): significant antitumor effects
tumor burden by bioluminescent imaging ([2]; Day 20): no visible tumors
tumor growth [3]: markedly retarded tumor growth
antitumor effects [4]: significant effects were observed
ADCC killing of primary samples [5]: sensitive to killing by ADCC
sensitivity to antibody-mediated cytotoxicity (JeKo-1-CD20-KO clone 25): retained sensitivity
direct binding to NHL lines [6]: exhibited direct binding
